Experimental data taken from patent US20150344570A1 (published 2015).

T1: FcγRIIb (human, UniProt P31994 43-217)
T1 construct: extracellular domain; also called 2b; not shown: His tag at the C terminus
T1 sequence (looked up): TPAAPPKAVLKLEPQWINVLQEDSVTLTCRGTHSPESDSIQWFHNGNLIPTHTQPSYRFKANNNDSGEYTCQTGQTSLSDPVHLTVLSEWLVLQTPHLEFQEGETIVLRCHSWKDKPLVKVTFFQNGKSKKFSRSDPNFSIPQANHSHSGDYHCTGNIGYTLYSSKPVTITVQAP

T2: FcγRIIa H (human, UniProt P12318 34-217)
T2 construct: extracellular domain; also called FcγRIIa type H; 2aH; not shown: His tag at the C terminus
T2 sequence (looked up): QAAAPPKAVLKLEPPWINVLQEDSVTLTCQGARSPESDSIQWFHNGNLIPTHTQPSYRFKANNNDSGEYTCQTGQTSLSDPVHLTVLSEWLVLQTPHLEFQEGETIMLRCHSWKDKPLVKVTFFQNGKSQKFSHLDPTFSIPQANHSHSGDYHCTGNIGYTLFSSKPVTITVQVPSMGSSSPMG


What was measured:
FcγRIIb = target: T1, FcγRIIb; test: SPR (Biacore), antibody captured, FcγR as analyte; binding relative to GpH7-A5/GpH7-B3/GpL16-k0 = 100
Experimental: (§1) The heterodimerized antibodies He Abs in which one of the H chains was introduced with an alteration were assayed for their binding activities to each activating FcγR and inhibitory FcγR according to the method described in Example 4. […] The activating FcγRs in FIGS. 26, 27, 28, and 29 are FcγRIa, FcγRIIa (R), FcγRIIa (H), and FcγRIIIa, respectively.
(§2) Analysis of interaction between objective antibody and the FcγR was carried out using Biacore T100 (GE Healthcare). HBS-EP+ (GE Healthcare) was used as the running buffer, and the measurement temperature was set to 25° C. Chips produced by immobilizing the antigen peptide by the amine coupling method to a Series S Sencor Chip CM5 (GE Healthcare), or alternatively, chips produced by allowing preliminarily biotinylated antigen peptides to interact with and immobilize onto a Series S Sensor Chip SA (certified) (GE Healthcare) were used. Antibodies of interest were captured onto an antigen peptide-immobilized chip, and allowed to interact to each FcγR diluted with running buffer. To regenerate and repeatedly use the chip, the antibodies captured on the chip were washed off by reacting 10 mM glycine-HCl, pH 1.5.

FcγRIIa H = target: T2, FcγRIIa H; test: as above
Experimental: as §1, §2

He/Con_2b (FcγRIIb)	He/Con_2aH (FcγRIIa H)	Binder
95 % of control	109 % of control	GpH7-A5/GpH7-B3 variant A330_11K/GpL16-k0 (antibody, human IgG1, kappa, Heterodimerized IgG1; mutation in the GpH7-B3 chain only; also called He Ab) heavy 1: not shown heavy 2: not shown light: DIVMTQSPLSLPVTPGEPASISCQASESLVHSNRNTYLHWYLQKPGQSPQLLIYKVSNRFSGVPDRFSGSGSGTDFTLKISRVEAEDVGVYYCSQNTHVPPTFGQGTKVEIERTVAAPSVFIFPPSDEQLKSGTASVVCLLNNFYPREAKVQWKVDNALQSGNSQESVTEQDSKDSTYSLSSTLTLSKADYEKHKVYACEVTHQGLSSPVTKSFNRGEC
95 % of control	102 % of control	GpH7-A5/GpH7-B3 variant E333_08L/GpL16-k0 (antibody, human IgG1, kappa, Heterodimerized IgG1; mutation in the GpH7-B3 chain only; also called He Ab) heavy 1: not shown heavy 2: not shown light: DIVMTQSPLSLPVTPGEPASISCQASESLVHSNRNTYLHWYLQKPGQSPQLLIYKVSNRFSGVPDRFSGSGSGTDFTLKISRVEAEDVGVYYCSQNTHVPPTFGQGTKVEIERTVAAPSVFIFPPSDEQLKSGTASVVCLLNNFYPREAKVQWKVDNALQSGNSQESVTEQDSKDSTYSLSSTLTLSKADYEKHKVYACEVTHQGLSSPVTKSFNRGEC
80.7 % of control	105 % of control	GpH7-A5/GpH7-B3 variant I332_03V/GpL16-k0 (antibody, human IgG1, kappa, Heterodimerized IgG1; mutation in the GpH7-B3 chain only; also called He Ab) heavy 1: not shown heavy 2: not shown light: DIVMTQSPLSLPVTPGEPASISCQASESLVHSNRNTYLHWYLQKPGQSPQLLIYKVSNRFSGVPDRFSGSGSGTDFTLKISRVEAEDVGVYYCSQNTHVPPTFGQGTKVEIERTVAAPSVFIFPPSDEQLKSGTASVVCLLNNFYPREAKVQWKVDNALQSGNSQESVTEQDSKDSTYSLSSTLTLSKADYEKHKVYACEVTHQGLSSPVTKSFNRGEC
94.6 % of control	102 % of control	GpH7-A5/GpH7-B3 variant E333_04F/GpL16-k0 (antibody, human IgG1, kappa, Heterodimerized IgG1; mutation in the GpH7-B3 chain only; also called He Ab) heavy 1: not shown heavy 2: not shown light: DIVMTQSPLSLPVTPGEPASISCQASESLVHSNRNTYLHWYLQKPGQSPQLLIYKVSNRFSGVPDRFSGSGSGTDFTLKISRVEAEDVGVYYCSQNTHVPPTFGQGTKVEIERTVAAPSVFIFPPSDEQLKSGTASVVCLLNNFYPREAKVQWKVDNALQSGNSQESVTEQDSKDSTYSLSSTLTLSKADYEKHKVYACEVTHQGLSSPVTKSFNRGEC
76.5 % of control	102 % of control	GpH7-A5/GpH7-B3 variant D270_10E/GpL16-k0 (antibody, human IgG1, kappa, Heterodimerized IgG1; mutation in the GpH7-B3 chain only; also called He Ab) heavy 1: not shown heavy 2: not shown light: DIVMTQSPLSLPVTPGEPASISCQASESLVHSNRNTYLHWYLQKPGQSPQLLIYKVSNRFSGVPDRFSGSGSGTDFTLKISRVEAEDVGVYYCSQNTHVPPTFGQGTKVEIERTVAAPSVFIFPPSDEQLKSGTASVVCLLNNFYPREAKVQWKVDNALQSGNSQESVTEQDSKDSTYSLSSTLTLSKADYEKHKVYACEVTHQGLSSPVTKSFNRGEC
87.6 % of control	101 % of control	GpH7-A5/GpH7-B3 variant A330_16H/GpL16-k0 (antibody, human IgG1, kappa, Heterodimerized IgG1; mutation in the GpH7-B3 chain only; also called He Ab) heavy 1: not shown heavy 2: not shown light: DIVMTQSPLSLPVTPGEPASISCQASESLVHSNRNTYLHWYLQKPGQSPQLLIYKVSNRFSGVPDRFSGSGSGTDFTLKISRVEAEDVGVYYCSQNTHVPPTFGQGTKVEIERTVAAPSVFIFPPSDEQLKSGTASVVCLLNNFYPREAKVQWKVDNALQSGNSQESVTEQDSKDSTYSLSSTLTLSKADYEKHKVYACEVTHQGLSSPVTKSFNRGEC
93 % of control	109 % of control	GpH7-A5/GpH7-B3 variant I332_16H/GpL16-k0 (antibody, human IgG1, kappa, Heterodimerized IgG1; mutation in the GpH7-B3 chain only; also called He Ab) heavy 1: not shown heavy 2: not shown light: DIVMTQSPLSLPVTPGEPASISCQASESLVHSNRNTYLHWYLQKPGQSPQLLIYKVSNRFSGVPDRFSGSGSGTDFTLKISRVEAEDVGVYYCSQNTHVPPTFGQGTKVEIERTVAAPSVFIFPPSDEQLKSGTASVVCLLNNFYPREAKVQWKVDNALQSGNSQESVTEQDSKDSTYSLSSTLTLSKADYEKHKVYACEVTHQGLSSPVTKSFNRGEC
94.3 % of control	103 % of control	GpH7-A5/GpH7-B3 variant E333_09D/GpL16-k0 (antibody, human IgG1, kappa, Heterodimerized IgG1; mutation in the GpH7-B3 chain only; also called He Ab) heavy 1: not shown heavy 2: not shown light: DIVMTQSPLSLPVTPGEPASISCQASESLVHSNRNTYLHWYLQKPGQSPQLLIYKVSNRFSGVPDRFSGSGSGTDFTLKISRVEAEDVGVYYCSQNTHVPPTFGQGTKVEIERTVAAPSVFIFPPSDEQLKSGTASVVCLLNNFYPREAKVQWKVDNALQSGNSQESVTEQDSKDSTYSLSSTLTLSKADYEKHKVYACEVTHQGLSSPVTKSFNRGEC
